This is an account of results in paper PMC4526367, “Weak Interactions between Salmonella enterica FlhB and Other Flagellar Export Apparatus Proteins Govern Type III Secretion Dynamics” (PLoS ONE, 2015).

Usually Kd stands for the free concentration of one partner at which half of the binding sites on the other are occupied at equilibrium, for simple one-to-one binding. A word on the koff: it is the rate constant with which the complex falls apart. The low end stands for slow dissociation, the high end for fast dissociation. A word on the kon: it is the second-order rate constant of association. High values mean fast association, low ones slow association. One may read the stoichiometry N as a count of units in the complex or per binding partner.

Series [1] deals with FlhB cytoplasmic domain (Salmonella enterica) (UniProt P40727). The experiment in a line: SPR. To be noted: cited from earlier work.
Series [2] deals with cytoplasmic domain of FlhA (FlhAC) (UniProt P40729). The experiment in a line: BLI; FlhAC ligand on streptavidin sensors, FlhBC analyte 2, 1, 0.5, 0.25 and 0.125 uM; HBS-T, 25°C; one-state association fits, global two-state dissociation fit, steady state analysis, kobs vs [FlhBC].
Sequence of cytoplasmic domain of FlhA (FlhAC) (P40729 whole entry, the tested form may be a part): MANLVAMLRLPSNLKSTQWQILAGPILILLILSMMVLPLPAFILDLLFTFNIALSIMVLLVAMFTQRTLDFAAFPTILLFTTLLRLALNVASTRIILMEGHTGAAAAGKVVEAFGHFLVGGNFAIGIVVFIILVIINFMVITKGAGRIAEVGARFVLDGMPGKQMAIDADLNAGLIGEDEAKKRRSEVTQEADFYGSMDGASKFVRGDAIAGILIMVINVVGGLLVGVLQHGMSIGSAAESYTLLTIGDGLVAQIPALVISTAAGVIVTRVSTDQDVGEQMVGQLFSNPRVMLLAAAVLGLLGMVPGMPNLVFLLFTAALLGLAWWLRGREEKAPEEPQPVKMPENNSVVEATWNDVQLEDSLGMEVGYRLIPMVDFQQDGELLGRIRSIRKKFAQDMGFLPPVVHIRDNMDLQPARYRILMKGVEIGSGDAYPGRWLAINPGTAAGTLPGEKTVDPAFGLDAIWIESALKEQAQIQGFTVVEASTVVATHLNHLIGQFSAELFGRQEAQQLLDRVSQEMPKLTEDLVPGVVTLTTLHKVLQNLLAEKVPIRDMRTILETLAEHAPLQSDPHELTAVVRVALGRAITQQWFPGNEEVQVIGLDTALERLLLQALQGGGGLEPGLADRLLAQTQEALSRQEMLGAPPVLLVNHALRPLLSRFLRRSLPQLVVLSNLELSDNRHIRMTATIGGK
Series [3] has the same target. The description is as above. The source holds these as a separate data set.
Another series concerns the target FliK (UniProt P26416). The experiment in a line: BLI. A general note: BLI is a label-free optical method that tracks binding on a fibre tip over time.
Series [4] concerns the target T1, full-length wild-type FlhB (Salmonella enterica, UniProt P40727).
T1 construct: also called FlhB from pMM9; source: overproduced from pMM9, purified under nondenaturing conditions from solubilized crude membrane fractions
T1 sequence 1: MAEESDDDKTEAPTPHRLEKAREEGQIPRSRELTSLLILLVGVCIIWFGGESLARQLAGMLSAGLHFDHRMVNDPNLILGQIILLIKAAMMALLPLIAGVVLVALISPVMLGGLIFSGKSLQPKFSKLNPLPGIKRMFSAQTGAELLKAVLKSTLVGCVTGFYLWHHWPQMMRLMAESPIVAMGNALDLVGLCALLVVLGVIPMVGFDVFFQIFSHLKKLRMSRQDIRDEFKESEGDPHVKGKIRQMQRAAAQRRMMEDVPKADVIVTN
T1 sequence 2: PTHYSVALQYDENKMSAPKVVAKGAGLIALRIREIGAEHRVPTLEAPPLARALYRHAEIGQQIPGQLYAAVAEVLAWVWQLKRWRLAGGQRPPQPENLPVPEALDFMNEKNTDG
The experiment in a line: BLI. To be noted: both partners purified.

For series [5], the target named is T2, FliI (UniProt P26465 1-456, biotin by amine crosslinking (NHS-LC-LC-biotin) when used as ligand).
T2 construct: source: E. coli BL21DE3(pLysS), purified (Talon IMAC, gel filtration into HBS-T)
T2 sequence: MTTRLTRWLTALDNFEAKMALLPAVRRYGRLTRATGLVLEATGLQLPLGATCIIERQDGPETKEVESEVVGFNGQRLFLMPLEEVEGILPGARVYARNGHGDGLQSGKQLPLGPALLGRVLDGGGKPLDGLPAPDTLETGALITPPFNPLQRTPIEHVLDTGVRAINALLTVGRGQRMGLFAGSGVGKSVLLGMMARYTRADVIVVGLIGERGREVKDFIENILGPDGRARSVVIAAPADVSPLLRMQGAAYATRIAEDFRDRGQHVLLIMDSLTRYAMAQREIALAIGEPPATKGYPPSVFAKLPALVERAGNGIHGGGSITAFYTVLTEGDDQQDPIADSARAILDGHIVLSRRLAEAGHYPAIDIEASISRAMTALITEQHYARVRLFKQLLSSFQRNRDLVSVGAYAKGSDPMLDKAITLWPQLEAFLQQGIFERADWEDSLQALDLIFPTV
The experiment in a line: BLI. To be noted: both partners purified.

Series [6] deals with T2, FliI. The experiment in a line: BLI; FlhBC ligand on streptavidin sensors, FliI analyte 4, 2, 1, 0.5 and 0.25 uM without ATP; HBS-T, 25°C; global one-state association-then-dissociation model. The conditions noted are these: both partners purified.
Series [7] concerns the molecule itself. The experiment in a line: AUC; sedimentation equilibrium, buffer with 33 mM C8E5, scans at 280 nm; fit to a single-species model.

Like-named read-outs stand apart in the source and are kept apart here.

Sequence of FliK (UniProt P26416) (P26416 whole entry): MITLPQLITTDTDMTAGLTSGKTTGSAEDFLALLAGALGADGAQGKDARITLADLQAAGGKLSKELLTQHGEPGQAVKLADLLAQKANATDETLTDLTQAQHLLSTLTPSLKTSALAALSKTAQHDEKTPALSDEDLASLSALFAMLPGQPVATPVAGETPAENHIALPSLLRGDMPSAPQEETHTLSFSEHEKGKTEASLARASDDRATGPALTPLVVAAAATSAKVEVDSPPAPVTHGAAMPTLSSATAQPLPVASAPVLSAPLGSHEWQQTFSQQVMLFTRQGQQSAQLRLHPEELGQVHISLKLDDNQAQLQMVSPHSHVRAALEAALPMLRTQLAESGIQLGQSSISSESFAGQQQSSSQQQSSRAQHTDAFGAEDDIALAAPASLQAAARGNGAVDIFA

Consider FliK (from UniProt P26416), for which the Kd in series [1] was 3200 nM.
In series [2], “cytoplasmic domain of FlhB (FlhBC) (from UniProt P40727 212-383) (domain or fragment)” showed a Kd of 1100 nM; a koff, fast state of the global two-state dissociation fit of 0.13 s⁻¹; a koff, slow state of the global two-state dissociation fit of 0.0047 s⁻¹. In series [3], the Kd was determined as 1000 nM, the koff is 0.085 s⁻¹ and the kon was 85000 M⁻¹ s⁻¹. In the series with FliK, this molecule had a KD of the initial binding event of 8000 nM, an equilibrium dissociation constant (Kd) of 2100 nM, a k1 (observed rate constant of initial binding) at 1 uM FlhBC of 0.05 s⁻¹ and a k1 (observed rate constant of initial binding) at 2 uM FlhBC of 0.1 s⁻¹. For the same molecule, in the series with FliK, the k1 (observed rate constant of initial binding) at 3 uM FlhBC turned out to be 0.2 s⁻¹; the k1 (observed rate constant of initial binding) at 4 uM FlhBC was 0.25 s⁻¹; the k1 (observed rate constant of initial binding) at 5 uM FlhBC came out at 0.25 s⁻¹; the k2 (dissociation of AB to the free proteins), simulation at 1 uM FlhBC was 0.44 s⁻¹. In the series with FliK, this molecule gave a k2 (dissociation of AB to the free proteins), simulation at 2 uM FlhBC of 0.44 s⁻¹; a k2 (dissociation of AB to the free proteins), simulation at 3 uM FlhBC of 0.44 s⁻¹; a k2 (dissociation of AB to the free proteins), simulation at 4 uM FlhBC of 0.44 s⁻¹; a k2 (dissociation of AB to the free proteins), simulation at 5 uM FlhBC of 0.44 s⁻¹. In the series with FliK, the k3 (shift from AB to AB*), simulation at 1 uM FlhBC was 0.0085 s⁻¹; the k3 (shift from AB to AB*), simulation at 2 uM FlhBC was 0.0085 s⁻¹; the k3 (shift from AB to AB*), simulation at 3 uM FlhBC was 0.0085 s⁻¹; the k3 (shift from AB to AB*), simulation at 4 uM FlhBC was 0.0085 s⁻¹. In the series with FliK, the k3 (shift from AB to AB*), simulation at 5 uM FlhBC was 0.0085 s⁻¹; the k4 (shift from AB* to AB), simulation at 1 uM FlhBC was 0.008 s⁻¹; the k4 (shift from AB* to AB), simulation at 2 uM FlhBC was 0.008 s⁻¹; the k4 (shift from AB* to AB), simulation at 3 uM FlhBC was 0.008 s⁻¹. In addition, in the series with FliK, the k4 (shift from AB* to AB), simulation at 4 uM FlhBC was 0.008 s⁻¹; the k4 (shift from AB* to AB), simulation at 5 uM FlhBC was 0.008 s⁻¹; the koff of the initial binding event came to 0.44 s⁻¹; the kon of the initial binding event is 55000 M⁻¹ s⁻¹.

B1: FliH (natural protein)
chain: MSNELPWQVWTPDDLAPPPETFVPVEADNVTLTEDTPEPELTAEQQLEQELAQLKIQAHEQGYNAGLAEGRQKGHAQGYQEGLAQGLEQGQAQAQTQQAPIHARMQQLVSEFQNTLDALDSVIASRLMQMALEAARQVIGQTPAVDNSALIKQIQQLLQQEPLFSGKPQLRVHPDDLQRVEEMLGATLSLHGWRLRGDPTLHHGGCKVSADEGDLDASVATRWQELCRLAAPGVL
modifications: biotin by amine crosslinking (NHS-LC-LC-biotin) when used as ligand
notes: source: E. coli BL21DE3(pLysS), purified (Talon IMAC, gel filtration into HBS-T)
Regarding B1, in series [4], the “KD with the 2 μM sample included” value came to 900 nM and binding was characterised by a dissociation constant (Kd) of 800 nM.

B2: cytoplasmic domain of FlhB (FlhBC) (domain or fragment)
chain: QIFSHLKKLRMSRQDIRDEFKESEGDPHVKGKIRQMQRAAAQRRMMEDVPKADVIVTNPTHYSVALQYDENKMSAPKVVAKGAGLIALRIREIGAEHRVPTLEAPPLARALYRHAEIGQQIPGQLYAAVAEVLAWVWQLKRWRLAGGQRPPQPENLPVPEALDFMNEKNTDG
modifications: biotin by amine crosslinking (NHS-LC-LC-biotin) when used as ligand
notes: as for B1
B2 gave a Kd with FliI [5] of 1100 nM. In the series with FliI [6], this molecule had a Kd of 84 nM, a koff of 0.0015 s⁻¹ and a kon of 18000 M⁻¹ s⁻¹.

B3: full-length FlhB(N269A), uncleavable variant (natural protein)
chain: MAEESDDDKTEAPTPHRLEKAREEGQIPRSRELTSLLILLVGVCIIWFGGESLARQLAGMLSAGLHFDHRMVNDPNLILGQIILLIKAAMMALLPLIAGVVLVALISPVMLGGLIFSGKSLQPKFSKLNPLPGIKRMFSAQTGAELLKAVLKSTLVGCVTGFYLWHHWPQMMRLMAESPIVAMGNALDLVGLCALLVVLGVIPMVGFDVFFQIFSHLKKLRMSRQDIRDEFKESEGDPHVKGKIRQMQRAAAQRRMMEDVPKADVIVTAPTHYSVALQYDENKMSAPKVVAKGAGLIALRIREIGAEHRVPTLEAPPLARALYRHAEIGQQIPGQLYAAVAEVLAWVWQLKRWRLAGGQRPPQPENLPVPEALDFMNEKNTDG
On to B3, for which the “stoichiometry N” value in series [7] stood at 2.
